Experiment [1] deals with C1s. The experiment in a line: C1s activity inhibition.
In experiment [2] the target is C1s. The experiment in a line: C1s activity inhibition; 10x periodate.
Experiment [3] concerns the target C1s. The experiment in a line: C1s activity inhibition; 20x periodate.
In experiment [4] the target is C1s. Kind of experiment: C1s activity inhibition; 40x periodate.

Here are results for four substances from patent publication US20250170227A1.

Regarding Cinryze, the IC50 (commonly the concentration that gives 50% inhibition) in experiment [1] was determined as 1.49 nM.
Take Cinryze-5k-10x: the half-inhibitory concentration (IC50) in experiment [2] stood at 1.45 nM.
Cinryze-5k-20x: the concentration for half-maximal inhibition (IC50) in experiment [3] was 2.26 nM.
In experiment [4], Cinryze-PEG5k-40x registered a half-maximal inhibitory concentration (IC50) of 2.7 nM.
